Assay results from IntAct's records for PubMed 26483485.

B1: Cell adhesion molecule CEACAM6 (Homo sapiens), P40199 (parent)
chain: MGPPSAPPCRLHVPWKEVLLTASLLTFWNPPTTAKLTIESTPFNVAEGKEVLLLAHNLPQNRIGYSWYKGERVDGNSLIVGYVIGTQQATPGPAYSGRETIYPNASLLIQNVTQNDTGFYTLQVIKSDLVNEEATGQFHVYPELPKPSISSNNSNPVEDKDAVAFTCEPEVQNTTYLWWVNGQSLPVSPRLQLSNGNMTLTLLSVKRNDAGSYECEIQNPASANRSDPVTLNVLYGPDVPTISPSKANYRPGENLNLSCHAASNPPAQYSWFINGTFQQSTQELFIPNITVNNSGSYMCQAHNSATGLNRTTVTMITVSGSAPVLSAVATVGITIGVLARVALI
B2: Cell adhesion molecule CEACAM8 (Homo sapiens), P31997 (parent)
chain: MGPISAPSCRWRIPWQGLLLTASLFTFWNPPTTAQLTIEAVPSNAAEGKEVLLLVHNLPQDPRGYNWYKGETVDANRRIIGYVISNQQITPGPAYSNRETIYPNASLLMRNVTRNDTGSYTLQVIKLNLMSEEVTGQFSVHPETPKPSISSNNSNPVEDKDAVAFTCEPETQNTTYLWWVNGQSLPVSPRLQLSNGNRTLTLLSVTRNDVGPYECEIQNPASANFSDPVTLNVLYGPDAPTISPSDTYYHAGVNLNLSCHAASNPPSQYSWSVNGTFQQYTQKLFIPNITTKNSGSYACHTTNSATGRNRTTVRMITVSDALVQGSSPGLSARATVSIMIGVLARVALI

Variants of: B1
Conditions: with ceam8_human CEACAM8, P31997

Row | Variant | effect of a mutation on the interaction
1 | I63A | disrupting interaction strength
2 | L78A | with no effect

More lines, now with the values ahead:

Row | effect of a mutation on the interaction | Variant
3 | disrupting interaction strength | L129A
4 | with no effect | Q123A

Variants of: B2
Conditions: with ceam6_human CEACAM6, P40199

Row | effect of a mutation on the interaction | Variant
5 | with no effect | Q123A
6 | disrupting interaction strength | R77A
7 | disrupting interaction strength | L129A
